Measured values published in the RNAGym collection of RNA variant scans (doi:10.1073/pnas.2313332121).
Fewer inactive variants are shown than the library holds.

B1: TPR 5TU (parent)
chain: GGAUCUUCUCGAUCUAACAAAAAAGACAAAUCUGCCACAAAGCUUGAGAGCAUCUUCGGAUGCAGAGGCGGCAGCCUUCGGUGGCGCGAUAGCGCCAACGUUCUCAACUAUGACACGCAAAACGCGUGCUCCGUUGAAUGGAGUUUAUCAUG

Variants of: B1
Assay: polymerase ribozyme fitness, log enrichment relative to wild type (log ratio); higher = more active; in vitro selection for triplet polymerase activity
Method in brief: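 Mutant libraries of both subunits of a heterodimeric triplet polymerase ribozyme were PCR-built, transcribed, and selected once in triplicate, with frozen incubation at −7 °C and capture of gel-excised extended constructs on streptavidin beads before RT-PCR. Illumina sequencing of input and output libraries was filtered to genotypes with ≥10 input reads and ≥1 read per output. Fitness is the logarithm of genotype enrichment over wild-type enrichment, using inverse-variance-weighted replicate averages. The logarithm is base 2.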

Variant | polymerase ribozyme fitness (log ratio)
C10G A16U C54U U56A G59A G88C C105G A110G A119U C123A U145G U148C | ≤ -4.2
U9C A73U | -4.1
U9G A29U U53G U55G C93A A137C | ≤ -4.2
U9G A37U C57U C85U G128A G141A U146A | ≤ -4.2
U9G C10G A17G A22G A23U G50A A73G | ≤ -4.2
U9C A16G U44G A49G A64G C105G G124A | ≤ -4.2
C10G A28G U82G G94C C95A G140A | ≤ -4.2
C10G U44G A49C A52C A64C G74C U104G A122G G141A | ≤ -4.2
U9G C27A C96A | ≤ -4.2
U9G C54G G62A C75A G81C C93G C96A C103G C118U | ≤ -4.2
C10G C85U A91C C105A | ≤ -4.2
C10G A41U | -4.05
U9A A20C A23U U31G A47C G50U G58A C85U A91C | ≤ -4.2
C10G C18U C85G G133U A138G | ≤ -4.2
C10G A89C U148C | ≤ -4.2
U9G U31G G42U U53A G58C | ≤ -4.2
C10G G42U G58A G86U A97U U101G G141C | ≤ -4.2
C10A A28U G58A C96U A122G G124C | ≤ -4.2
C10G G81C C87A U127C U144A U148A | ≤ -4.2
U9G C10G C87G C93U G124C | ≤ -4.2
C10G U109C A137C | ≤ -4.2
C10A A12G A23C U55A | ≤ -4.2
C10A C69U | ≤ -4.2
U9A A23C C35G C75U G92U C95G U127A | ≤ -4.2

Variant | polymerase ribozyme fitness (log ratio)
C10G A37G G92C U135G A137G C149G | ≤ -4.2
C10G A20G A138G U144A U145A | ≤ -4.2
C10A G11A A39U C93A G141U | ≤ -4.2
U9G C51G G84A G141C | ≤ -4.2
C10G U44G U56G C57U A66C C87U A106G A142U | ≤ -4.2
C10A A91G C93U U144G | ≤ -4.2
C10G C27A A39U C75A G92C A97U A121U | ≤ -4.2
U9G A17U G94A | ≤ -4.2
U9A C96U A110C | ≤ -4.2
U9A G25U C36U G50C G86A | ≤ -4.2
U9C A12C C57U C63U G74C A119G U146G | ≤ -4.2
U9A C14A A23U A30C C36A C95U A110U | ≤ -4.2
C10A G84U | ≤ -4.2
U9A A16U A19U C27G U77C G84A G100C G133U G141A U145A | ≤ -4.2
U9G A20C C32G A89C U144A | ≤ -4.2
U9G U33G G59A G140U | ≤ -4.2
U9A A17C A20C C54U U55G G58A G67A C116G G143A | ≤ -4.2
C10G C38U C87A C93G | ≤ -4.2
C10A C54A | ≤ -4.2
U9C A49G A106G C116U G136A A137C G143A U144C U148G | ≤ -4.2
U9A C85A U90C U104A U127G G140A | ≤ -4.2
C10G C32G C38G U55G C87A G92A C125G G126A | -4.1
U9C | -1.27
U9G | -2.82

Variant | polymerase ribozyme fitness (log ratio)
U9G A23U G58A G59U C79A G81U C85A A120C U139C | ≤ -4.2
C10A A24C G71A U77G G94A C99A C125U G140C | ≤ -4.2
U9A A21U U55A C85G G112C U145A | ≤ -4.2
U9G A29G A47C U53A U55G G124C G133C G143A | ≤ -4.2
U9A A23C U31G A73U C93G A106G G117A G133A A150G | ≤ -4.2
U9G A20U G84A U102C A115G | ≤ -4.2
C10A C85U G133C U134A U146G | ≤ -4.2
C10A C85U | -4.01
U9G A23C U56A A73U G86C | ≤ -4.2
C10A A23U C35G C95G G128A | ≤ -4.2
C10G A12G A120U U135C | ≤ -4.2
C10G A19G G34A A52C C54G | ≤ -4.2
U9A C93A | -3.87
U9A A17U G58A U151A | ≤ -4.2
U9A A41U A52C G62U C87G A89G C95U C116A A142C U146A A150C | ≤ -4.2
C10G A29C C54A U55G G88A G92U G124U | ≤ -4.2
C10G U15G A23C G62C A97C C125U | ≤ -4.2
U9C G71A C95U U151C | ≤ -4.2
U9A C63U C69U C76U C93A A113U G136C | ≤ -4.2
U9G C38U C54U C57A A60G | ≤ -4.2
U9C A12U C27G G48A G74A G88A | ≤ -4.2
U9C A28U A30C U61A G88A A91U G92A A119U | ≤ -4.2
C10A U56G C57G G59A C79U G83C C99G | ≤ -4.2
C10A A12U A41G C96A A107C C114A | ≤ -4.2

Variant | polymerase ribozyme fitness (log ratio)
C10A G42C U44A U53A C85A A122C | ≤ -4.2
U9A G86A C93U G141C | ≤ -4.2
U9G G11C C76A G92C U134C U139G A150G | ≤ -4.2
C10A C85G C125A | ≤ -4.2
U9C A22C C54U C57U G100U C105G | ≤ -4.2
C10G U53A G83U A91U A97G C103A | ≤ -4.2
U9G C85A C103A C118G U134A | ≤ -4.2
C10A G34U A40U C57U U78G C79U G84C C85A U104A A120C | ≤ -4.2
U9G U15G C27G U31A C38A A66C G67A C87U C99G G143C | ≤ -4.2
U9A U55A C85U G94A C114U G140C | ≤ -4.2
C10A C95U | -3.57
U9G A142G | ≤ -4.2
C10G A40U A64U C76G C85A G117U G136A G143A | ≤ -4.2
C10A A41G C103A A110G | ≤ -4.2
U9A C125G | ≤ -4.2
C10A C14U C93G C149U | ≤ -4.2
C10G C32A G86U G92C G124A A137G | ≤ -4.2
U9C A22U U53G C79U | ≤ -4.2
C10G C36U G70C C79A C95G A115U | ≤ -4.2
C10A C96U G143A | ≤ -4.2
U9G C18G A30U C35G C87G A147G | ≤ -4.2
U9C A28C C36A C87U C116U | ≤ -4.2
C10A G48C U82G A97U | ≤ -4.2
U9C C76U | -2.74

Variant | polymerase ribozyme fitness (log ratio)
U9A U15A G48C C51G G84A | ≤ -4.2
U9A A26U A47C A49G G84A G86C | ≤ -4.2
U9G C85A | -3.76
U9C U15G C93A | ≤ -4.2
U9G A17C A52C G84A C118A | ≤ -4.2
U9G A73U C87U U102A C105G C108A | ≤ -4.2
U9A A39C U53G G92A G112C A113G C149G | ≤ -4.2
C10G A16U A49C C51G A52U U56A C103G U146A | ≤ -4.2
U9A C43A A147U U151G | ≤ -4.2
C10G A20U C35A C85G A142C | ≤ -4.2
C10G A17C C36U G48A A64U G88C C118G | ≤ -4.2
C10A A20G A23C A24U A26G C85G A91G G100U A115G | ≤ -4.2
U9A A22G G34A A106G C116U A120U | ≤ -4.2
C10G U56A C57U C69U C95A C99U C108U A121U A147G | ≤ -4.2
C10G U31A U44C C57A G59U U61G G92C A107U | ≤ -4.2
U9C A47U | -3.94
U9C C35G A39U C103G | ≤ -4.2
U9A U15C G48A G50C C96A G133C | ≤ -4.2
U9C U15G C54A G67C G84A G117A | ≤ -4.2
U9C U53A G58U A60C A66C A147C | ≤ -4.2
C10A C54A A91C C105A C129A G143C | ≤ -4.2
C10A A39U G86C U109G U130C | ≤ -4.2
U9A G141C | -3.23
U9A G141A | -2.94

Variant | polymerase ribozyme fitness (log ratio)
C10G A17U A37C G59C C85A | ≤ -4.2
C10G G92C U111A C114A | ≤ -4.2
U9A U31G U53G G88A G126U A150C | ≤ -4.2
C10G A30C G92U A107G U148C A150U | ≤ -4.2
C10G G94A | -3.44
C10A C35U A97U | ≤ -4.2
U9A U15A C93U C103G | ≤ -4.2
U9A U15C C35U G71A C72U U77G C87A A119U G124C | ≤ -4.2
C10G A22G A39U U109C | ≤ -4.2
C10G A26U A28C C87A G88U A91C U145C | ≤ -4.2
U9A U13G G42U U61A A91U A106G A142C | ≤ -4.2
U9A C32A U55G G88U U109A | ≤ -4.2
C10G C18U G59U G86A C103A | ≤ -4.2
U9C C10U A16U A19C C85G G94C C105U A106U | ≤ -4.2
C10U A16G C43G U44G U77A U82A A120C | ≤ -4.2
U9C A29U U31C U44A C75A C85A G141A | ≤ -4.2
U9C A23U A24G C38G A89G A91U | ≤ -4.2
C10U A16G G84U G140U | ≤ -4.2
C10G G46A U55A G65A A73G U134A | ≤ -4.2
C10G G58A G59C G65A C95G C96A A120C | ≤ -4.2
U9C C14G | ≤ -4.2
U9C C14U C76A C87G | ≤ -4.2
C10G C18G G42U A49C G50A G74A G133C G143A | ≤ -4.2
C10A U33A U78G U90A G140A | ≤ -4.2

Variant | polymerase ribozyme fitness (log ratio)
U9G C27G A28C A47U G70A A91C | ≤ -4.2
C10A A12U G80C G94A | ≤ -4.2
U9C U33G A52C C93G A110U | ≤ -4.2
U9G A20C A29U C35U A47C C54U U56A C96A U130G | ≤ -4.2
U9A A12G C14U A23U A40C C76G G86C U90C C118A C131G | ≤ -4.2
U9A A23G G68C C79U G94C C105G G143A | ≤ -4.2
U9G C32A U55A C57U C93G A142C U148C | -4.04
C10A C85G G141U | ≤ -4.2
U9G C14A C85U G141U | -4.19
C10A A17U C36U C76U G84U U101A U104G C108U A121C | ≤ -4.2
C10G G34U C85A | ≤ -4.2
U9A A26G A66C A122U A137U G143C U145A | ≤ -4.2
U9C C38U C51U A52G G74C C85G G143C U145A | ≤ -4.2
U9A U31G G58U A73U C123U U135A | ≤ -4.2
U9C A16U A19U U31A C35U A49U | ≤ -4.2
U9C U56A C76A C108G G143U A150G | ≤ -4.2
C10G A21U A22U U55A G59C A142C | ≤ -4.2
U9A A24U A37C G42C G50C G58A C85G A91C U148A | ≤ -4.2
C10G G68A C79G | ≤ -4.2
C10A C27G U77C G83A | ≤ -4.2
U9A A12C A23G G42C C51A A120C A121U | ≤ -4.2
U9C U56A G83A C87U | ≤ -4.2
U9G A49U C85U | ≤ -4.2
